This test has as its target recombinant rat arrestin-2 (rat), P29066. In words: MST + fluorescence polarisation. Background: Polarisation of emitted light reports the rotation of a fluorescent probe.

The term Kd denotes the free concentration of one partner at which half of the binding sites on the other are occupied at equilibrium, for simple one-to-one binding.

No end group written: not given here.

Chain of recombinant rat arrestin-2 (rat), P29066 (P29066 whole entry): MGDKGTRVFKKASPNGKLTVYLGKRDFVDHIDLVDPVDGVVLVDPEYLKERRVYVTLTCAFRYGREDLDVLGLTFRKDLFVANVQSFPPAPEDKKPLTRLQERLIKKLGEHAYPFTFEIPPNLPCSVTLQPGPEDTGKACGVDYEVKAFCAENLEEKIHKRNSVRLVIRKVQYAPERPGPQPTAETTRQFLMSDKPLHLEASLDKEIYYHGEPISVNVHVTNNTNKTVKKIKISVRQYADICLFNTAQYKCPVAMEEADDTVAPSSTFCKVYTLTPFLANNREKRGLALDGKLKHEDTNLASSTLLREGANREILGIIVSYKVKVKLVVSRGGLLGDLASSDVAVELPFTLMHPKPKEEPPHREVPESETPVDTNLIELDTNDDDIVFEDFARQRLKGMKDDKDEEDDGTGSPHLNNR

Turning to GFEPFSQRKLEELKDESSRAWTEEEINE (domain or fragment, not fully specified) [phosphomimetic GHSR C-terminus, Q92847 339-366], the dissociation constant (Kd) stood at 200 µM.
